B1: mFAS beta-module, construct 8 (2-858+1104-1517+1870-2195) (domain or fragment, Mus musculus, UniProt P19096 2-2195, looked up)
chain: EEVVIAGMSGKLPESENLQEFWANLIGGVDMVTDDDRRWKAGLYGLPKRSGKLKDLSKFDASFFGVHPKQAHTMDPQLRLLLEVSYEAIVDGGINPASLRGTNTGVWVGVSGSEASEALSRDPETLLGYSMVGCQRAMMANRLSFFFDFKGPSIALDTACSSSLLALQNAYQAIRSGECPAALVGGINLLLKPNTSVQFMKLGMLSPDGTCRSFDDSGSGYCRSEAVVAVLLTKKSLARRVYATILNAGTNTDGSKEQGVTFPSGEVQEQLICSLYQPAGLAPESLEYIEAHGTGTKVGDPQELNGITRSLCAFRQAPLLIGSTKSNMGHPEPASGLAALTKVLLSLEHGVWAPNLHFHNPNPEIPALLDGRLQVVDRPLPVRGGNVGINSFGFGGSNVHVILQPNTRQAPAPTAHAALPHLLHASGRTLEAVQDLLEQGRQHSQDLAFVSMLNDIAATPTAAMPFRGYTVLGVEGRVQEVQQVSTNKRPLWFICSGMGTQWRGMGLSLMRLDSFRESILRSDEAVKPLGVKVSDLLLSTDERTFDDIVHAFVSLTAIQIALIDLLTSVGLKPDGIIGHSLGEVACGYADGCLSQREAVLAAYWRGQCIKDAHLPPGSMAAVGLSWEECKQRCPAGVVPACHNSEDTVTISGPQAAVNEFVEQLKQEGVFAKEVRTGGLAFHSYFMEGIAPTLLQALKKVIREPRPRSARWLSTSIPEAQWQSSLARTSSAEYNVNNLVSPVLFQEALWHIPEHAVVLEIAPHALLQAVLKRGVKSSCTIIPLMKRDHKDNLEFFLTNLGKVHLTGINVNPNALFPPVEFPAPRGTPLISPHIKWDHSQTWDVPVAEDFPNGSSSSSSRRQQEQLVPTLEKFVFTPHMEAECLSESTALQKELQLCKGLARALQTKATQQGLKAAMLGQEDPPQHGLPRLLAAACQLQLNGNLQLELGEALAQERLLLPEDPLISGLLNSQALKACVDTALENLSTLKMKVAEVLAGEGHLYSRIPALLNTQPMLQLEYTATDRHPQALKDVQTKLQQHDVAQGQWNPSDPAPSSLGALDLLVCNCALATLGDPALALDNMVAALKEGGFLLVHTVLKGHALGETLACLPSEVQPAPSLLSQEEWESLFSRKALHLVGLKRSFYGTALFLCRRAIPQEKPIFLSVEDTSFQWVDSLKSTLATSSSQPVWLTAMDCPTSGVVGLVNCLRKEPGGHRIRCILLSNLSNTSHAPKLDPGSPELQQVLKHDLVMNVYRDGAWGAFRHFQLEQDKPSKTFCPAHKSYIITGGLGGFGLELARWLVLRGAQRLVLTSRSGIRTGYQAKHIREWRRQGIQVLVSTSNVSSLEGARALIAEATKLGPVGGVFNLAMVLRDAMLENQTPELFQDVNKPKYNGTLNLDRATREACPELDYFVAFSSVSCGRGNAGQTNYGFANSTMERICEQRRHDGLPGLAVQWGAIGDVGIVLEAMGTNDTVIGGTLPQRISSCMEVLDLFLNQPHAVLSSFVLAEKKAVAHGDGDTQRDLVKAVAHILGIRDLAGINLDSTLADLGLDSLMGVEVRQILEREHDLVLPMREVRQLTLRKLQEMSSKTDSATDTT
notes: murine fatty acid synthase 2-2195 with the DH domain (S858 linked with S1104) and the ER domain (P1517 bridged to S1870) deleted; Made from construct 7; also called β-module
B2: mFAS gamma-module, construct 7 (2-1517+1870-2195) (domain or fragment, Mus musculus, UniProt P19096 2-2195, looked up)
chain: EEVVIAGMSGKLPESENLQEFWANLIGGVDMVTDDDRRWKAGLYGLPKRSGKLKDLSKFDASFFGVHPKQAHTMDPQLRLLLEVSYEAIVDGGINPASLRGTNTGVWVGVSGSEASEALSRDPETLLGYSMVGCQRAMMANRLSFFFDFKGPSIALDTACSSSLLALQNAYQAIRSGECPAALVGGINLLLKPNTSVQFMKLGMLSPDGTCRSFDDSGSGYCRSEAVVAVLLTKKSLARRVYATILNAGTNTDGSKEQGVTFPSGEVQEQLICSLYQPAGLAPESLEYIEAHGTGTKVGDPQELNGITRSLCAFRQAPLLIGSTKSNMGHPEPASGLAALTKVLLSLEHGVWAPNLHFHNPNPEIPALLDGRLQVVDRPLPVRGGNVGINSFGFGGSNVHVILQPNTRQAPAPTAHAALPHLLHASGRTLEAVQDLLEQGRQHSQDLAFVSMLNDIAATPTAAMPFRGYTVLGVEGRVQEVQQVSTNKRPLWFICSGMGTQWRGMGLSLMRLDSFRESILRSDEAVKPLGVKVSDLLLSTDERTFDDIVHAFVSLTAIQIALIDLLTSVGLKPDGIIGHSLGEVACGYADGCLSQREAVLAAYWRGQCIKDAHLPPGSMAAVGLSWEECKQRCPAGVVPACHNSEDTVTISGPQAAVNEFVEQLKQEGVFAKEVRTGGLAFHSYFMEGIAPTLLQALKKVIREPRPRSARWLSTSIPEAQWQSSLARTSSAEYNVNNLVSPVLFQEALWHIPEHAVVLEIAPHALLQAVLKRGVKSSCTIIPLMKRDHKDNLEFFLTNLGKVHLTGINVNPNALFPPVEFPAPRGTPLISPHIKWDHSQTWDVPVAEDFPNGSSSSSATVYSIDASPESPDHYLVDHCIDGRVIFPGTGYLCLVWKTLARSLGLSLEETPVVFENVSFHQATILPKTGTVALEVRLLEASHAFEVSDTGNLIVSGKVYLWEDPNSKLFDHPEVPTPPESASVSRLTQGEVYKELRLRGYDYGPQFQGICEATLEGEQGKLLWKDNWVTFMDTMLQVSILGSSQQSLQLPTRVTAIYIDPATHRQKVYRLKEDTQVADVTTSRCLGITVSGGIHISRLQTTATSRRQQEQLVPTLEKFVFTPHMEAECLSESTALQKELQLCKGLARALQTKATQQGLKAAMLGQEDPPQHGLPRLLAAACQLQLNGNLQLELGEALAQERLLLPEDPLISGLLNSQALKACVDTALENLSTLKMKVAEVLAGEGHLYSRIPALLNTQPMLQLEYTATDRHPQALKDVQTKLQQHDVAQGQWNPSDPAPSSLGALDLLVCNCALATLGDPALALDNMVAALKEGGFLLVHTVLKGHALGETLACLPSEVQPAPSLLSQEEWESLFSRKALHLVGLKRSFYGTALFLCRRAIPQEKPIFLSVEDTSFQWVDSLKSTLATSSSQPVWLTAMDCPTSGVVGLVNCLRKEPGGHRIRCILLSNLSNTSHAPKLDPGSPELQQVLKHDLVMNVYRDGAWGAFRHFQLEQDKPSKTFCPAHKSYIITGGLGGFGLELARWLVLRGAQRLVLTSRSGIRTGYQAKHIREWRRQGIQVLVSTSNVSSLEGARALIAEATKLGPVGGVFNLAMVLRDAMLENQTPELFQDVNKPKYNGTLNLDRATREACPELDYFVAFSSVSCGRGNAGQTNYGFANSTMERICEQRRHDGLPGLAVQWGAIGDVGIVLEAMGTNDTVIGGTLPQRISSCMEVLDLFLNQPHAVLSSFVLAEKKAVAHGDGDTQRDLVKAVAHILGIRDLAGINLDSTLADLGLDSLMGVEVRQILEREHDLVLPMREVRQLTLRKLQEMSSKTDSATDTT
notes: murine fatty acid synthase 2-2195 with the ER domain deleted (P1517 bridged to S1870); Made from construct 6 as template; also called γ-module

Biological target: the molecule itself
Assay: SEC; as a1, but samples not incubated at 37 °C before the SEC run; monomer to dimer

Protein | stoichiometry N
B1 | 2
B2 | 2

— article doi:10.1101/379156, “Probing the Modularity of Megasynthases by Rational Engineering of a Fatty Acid Synthase (FAS) Type I” (bioRxiv, 2018)
